In PMC6586363, “Phenotypic selection with an intrabody library reveals an anti-apoptotic function of PKM2 requiring Mitofusin-1” (PLoS Biology, 2019):

B1: recombinant PKM2 (K270M) (enzyme)
chain: not shown
notes: human pyruvate kinase isoform M2 with K270M, plasmid pET28a-His-hPKM2 (K270M); source: E. coli BL21 (DE3), purified (Ni-NTA)
B2: intrabody 5 (IB5) (scFv, V domains shown)
VH: QVQLVETGPGLVKPSETLSLRCTVSGGSFDNYYWNWIRQPPGKGLEYIGYVFPSTGATNYNPSLGSRVTISLDTSKNQFSLTLTSVTTADTAIYYCVRSGHDLWTGSTWFDPWGQWTTVTVSS
VL: EIVLTQSPGTLSLSPGERATLSCRASQSVSSSYLAWYQQKPGQAPRLLIYGASSRATGIPDRFSGSGSGTDFTLTISRLEPEDIAVYYCQQRSNWPRTFGQGTKVEIK
notes: human VH and VL joined by a flexible peptide linker, from a naive human combinatorial scFv library; Expressed without a secretion leader from an EF1alpha lentiviral vector; The tandem Strep-tag was added for the target immunoprecipitation construct; also called clone 5; scFv 5; source: HEK293T, infected with intrabody lentivirus, in lysate; not shown: FLAG, C-terminal, kept
B3: recombinant monovalent scFv 5 (corresponding to IB5) (scFv, V domains shown)
VH: B2 VH
VL: B2 VL
notes: as the scFv of m1; also called purified scFv 5; recombinant scFv; source: E. coli Rosetta (DE3)pLys, pET28a, purified (Ni-NTA)
B4: recombinant PKM2 (K422R) (enzyme)
chain: not shown
notes: human pyruvate kinase isoform M2 with K422R; also called stably tetrameric PKM2 mutant; source: recombinant; WT and mutant PKM2 proteins from E. coli BL21 (DE3), purified (Ni-NTA)

What was measured:
[1] = target: the molecule itself; test: native gel or EMSA; blue native gel electrophoresis of recombinant PKM2 (WT or mutant) or PKM1, alone or with FBP and/or scFv 5; resolves dimer and tetramer forms
[2] = target: T1, pyruvate kinase M2 (PKM2), endogenous in 293T cells (Homo sapiens (Human)., UniProt P14618); test: affinity purification with mass spectrometry; lysate (1% Triton X-100) of 293T cells expressing FLAG/Strep-tagged intrabody; anti-FLAG M2 beads 2 h at 4°C, elution with 3X FLAG peptide, then Strep-Tactin; SDS-PAGE with silver stain, bands identified by MALDI TOF/TOF; details: partners not purified
T1 construct: pyruvate kinase isoform M2 (PKM2), product of the PKM gene with exon 10; also called 55-kD protein; source: endogenous, HEK293T lysate

[3] = target: T2, recombinant human PKM2, wild type (human, UniProt P14618); test: native gel or EMSA; blue native gel electrophoresis; recombinant scFv 5 mixed with recombinant PKM2 (WT or mutant) or PKM1 at various molar ratios, reaction volume 20 μl; details: both partners purified
T2 construct: Runs as dimer and tetramer on blue native gels; also called WT PKM2; His-hPKM2; source: E. coli BL21 (DE3), purified (Ni-NTA)
T2 sequence (P14618 whole entry): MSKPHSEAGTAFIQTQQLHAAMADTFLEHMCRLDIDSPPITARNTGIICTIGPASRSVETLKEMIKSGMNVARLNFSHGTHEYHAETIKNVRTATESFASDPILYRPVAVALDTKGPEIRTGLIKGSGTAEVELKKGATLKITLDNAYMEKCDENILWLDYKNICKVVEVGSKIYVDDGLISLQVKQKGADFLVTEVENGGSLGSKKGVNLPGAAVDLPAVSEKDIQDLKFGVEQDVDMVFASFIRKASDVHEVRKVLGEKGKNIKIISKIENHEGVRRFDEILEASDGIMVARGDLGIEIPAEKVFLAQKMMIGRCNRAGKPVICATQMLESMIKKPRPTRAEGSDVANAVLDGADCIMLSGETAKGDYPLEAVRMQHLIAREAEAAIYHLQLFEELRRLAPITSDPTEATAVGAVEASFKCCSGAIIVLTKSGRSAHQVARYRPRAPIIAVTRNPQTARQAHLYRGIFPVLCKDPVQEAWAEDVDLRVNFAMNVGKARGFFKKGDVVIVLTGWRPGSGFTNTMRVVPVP

T1 sequence (P14618 whole entry, canonical isoform): as the sequence (P14618 whole entry) above

Row | Binder | stoichiometry N [1] | other results
1 | B1 | 2 | –
2 | B2 | – | binding result [2]: binds
3 | B3 | – | binding result [3]: binds
4 | B4 | 4 | –
